From US20240307562A1 (ONCOONE RESEARCH AND DEVELOPMENT, published 2024)

Key:
[1] = molecular target: T1, Recombinant human MIF immobilized on ELISA plates (oxMIF) (human, UniProt P14174 2-115); assay: ELISA on immobilized human MIF (oxMIF), protein L-HRP detection; EC50 of 4-parameter fit taken as KD
T1 construct: also called immobilized MIF; oxidized MIF
Experimental: (§1) Material and Methods: Recombinant human MIF diluted in PBS at 1 μg/ml was immobilized into ELISA plates overnight at 4° C. (transforming MIF to oxMIF according to Thiele et al., 2015). After blocking, serial dilutions of anti-oxMIF antibodies were added to the plates. Finally, bound antibodies were detected using a protein L-HRP conjugate and tetramethylbenzidine (TMB) as substrate. The chromogenic reaction was stopped with 3M H₂SO₄ and OD was measured at 450 nm. Data from different experiments were normalized to the maximal OD of the anti-oxMIF antibody C0008 (=100%) of the respective experiment and EC₅₀ values were determined by 4-parameter fit using GraphPad Prism (and the mean of two experiments is shown).

[2] = molecular target: T1, Recombinant human MIF immobilized on …; assay: ELISA on immobilized human MIF (oxMIF), anti-human IgG (Fc)-HRP detection; EC50 taken as apparent KD
Experimental: Recombinant human MIF diluted in PBS at 1 μg/ml was immobilized into ELISA plates overnight at 4° C. (transforming MIF to oxMIF according to Thiele et al., 2015). After blocking, serial dilutions of anti-oxMIF antibodies with and without DFO* conjugation (DFO* conjugation is described in Example 19) were added to the plates. Finally, bound antibodies were detected using a Goat anti-human IgG (Fc)-HRP conjugate and tetramethylbenzidine (TMB) as substrate. The chromogenic reaction was stopped with 3M H₂SO₄ and OD was measured at 450 nm. If data from different experiments were combined, the data were normalized to the maximal OD of the anti-oxMIF antibody C0008 (=100%) of the respective experiment and EC₅₀ values were determined by 4-parameter fit using GraphPad Prism (and the mean+/−SEM of two experiments is shown).
Results and conclusion: The binding of the newly designed antibodies towards immobilized MIF (oxMIF) was measured over a broad range of concentrations and the resulting binding curves are illustrated in FIG. 19. The anti-oxMIF antibody C0008 was used as reference for oxMIF binding. […] Additionally, DFO* conjugation of the newly designed Fc-silenced antibodies C0115 and C0118 has not changed their affinity (FIG. 19B).

[3] = molecular target: T1, Recombinant human MIF immobilized on …; assay: ELISA on immobilized human MIF (oxMIF)
Experimental: as §1
Results and conclusion: The binding of the newly designed antibodies towards immobilized MIF (oxMIF) was measured over a broad range of concentrations and the resulting binding curves are illustrated in FIG. 8. The anti-oxMIF antibody C0008 was used as reference for oxMIF binding.

[4] = molecular target: human FcγRIIIA receptor, V158 (high affinity allotype) (human, UniProt P08637 17-254); assay: cell-based or functional assay
human FcγRIIIA receptor, V158 (high affinity allotype), sequence (P08637 17-254 F176V): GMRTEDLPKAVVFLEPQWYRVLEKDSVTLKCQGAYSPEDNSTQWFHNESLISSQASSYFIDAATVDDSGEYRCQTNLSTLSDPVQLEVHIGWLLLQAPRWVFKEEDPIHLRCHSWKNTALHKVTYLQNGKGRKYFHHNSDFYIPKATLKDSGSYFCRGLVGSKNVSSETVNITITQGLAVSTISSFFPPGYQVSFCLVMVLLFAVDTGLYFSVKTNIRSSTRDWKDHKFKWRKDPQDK

T1 sequence (P14174 2-115 limits assumed): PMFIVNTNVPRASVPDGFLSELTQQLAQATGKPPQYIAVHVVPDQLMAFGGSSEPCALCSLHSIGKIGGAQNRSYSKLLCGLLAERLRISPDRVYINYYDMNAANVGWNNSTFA

Binder | Kd [1] [nM] | Kd [2] [nM] | fold reduction in affinity compared to C0076 [3] [fold] | EC50 (read off the curve), ADCC reporter luminescence [4] [nM]
C0008 (Imalumab control antibody) (antibody, human IgG1, kappa, V domains shown, also called Bax69) VH: EVQLLESGGGLVQPGGSLRLSCAASGFTFSIYSMNWVRQAPGKGLEWVSSIGSSGGTTYYADSVKGRFTISRDNSKNTLYLQMNSLRAEDTAVYYCAGSQWLYGMDVWGQGTTVTVSS VL: DIQMTQSPSSLSASVGDRVTITCRSSQRIMTYLNWYQQKPGKAPKLLIFVASHSQSGVPSRFRGSGSETDFTLTISGLQPEDSATYYCQQSFWTPLTFGGGTKVEIKR | 0.7 | 0.19 | – | –
C0077 (antibody, human IgG1, kappa, name in Kabat numbering, V domains shown, IgG1, wt Fc) VH: EVQLQESGGGLVQPGGSLRLSCAASGFTFSIYSMNWVRQAPGKGLEWVSSIGSSGGTTYYADSVKGRFTISRDNSKNTLYLQMNSLRAEDTAVYYCAGSQWLYGMDVWGQGTTVTVSS VL: DIQMTQSPSSLSASVGDRVTITCRSSQRIMTYLNWFQQKPGKAPKLLIYVGSHSQSGVPSRFRGSGSETDFTLTISGLQPEDSATYYCQQSFWTPLTFGGGTKVEIKR | 5.2 | – | 5 | –
C0076 (antibody, human IgG1, kappa, V domains shown, IgG1, wt Fc) VH: EVQLQESGGGLVQPGGSLRLSCAASGFTFSIYSMNWVRQAPGKGLEWVSSIGSSGGTTYYADSVKGRFTISRDNSKNTLYLQMNSLRAEDTAVYYCAGSQWLYGMDVWGQGTTVTVSS VL: DIQMTQSPSSLSASVGDRVTITCRSSQRIMTYLNWYQQKPGKAPKLLIYVGSHSQSGVPSRFRGSGSETDFTLTISGLQPEDSATYYCQQSFWTPLTFGGGTKVEIKR | 1.1 | – | – | –
C0118 (antibody, human IgG1, kappa, L234A L235A, IgG1 with Fc silencing L234A/L235A (EU numbering); also called Fc silenced anti-oxMIF antibody C0118) heavy: not shown light: DIQMTQSPSSLSASVGDRVTITCRSSQRILTYLNWYQQKPGKAPKLLIYVGSHSQSGVPSRFRGSGSETDFTLTISGLQSEDSATYYCQQSFFTPLTFGGGTKVEIKRTVAAPSVFIFPPSDEQLKSGTASVVCLLNNFYPREAKVQWKVDNALQSGNSQESVTEQDSKDSTYSLSSTLTLSKADYEKHKVYACEVTHQGLSSPVTKSFNRGEC | – | 0.26 | – | –
C0090 (antibody, human IgG1, kappa, IgG1, wt Fc; also called parent antibody of C0118) heavy: not shown light: DIQMTQSPSSLSASVGDRVTITCRSSQRILTYLNWYQQKPGKAPKLLIYVGSHSQSGVPSRFRGSGSETDFTLTISGLQSEDSATYYCQQSFFTPLTFGGGTKVEIKRTVAAPSVFIFPPSDEQLKSGTASVVCLLNNFYPREAKVQWKVDNALQSGNSQESVTEQDSKDSTYSLSSTLTLSKADYEKHKVYACEVTHQGLSSPVTKSFNRGEC | 0.5 | – | – | ~3
C0073 (antibody, human IgG1, kappa, IgG1, wt Fc) heavy: not shown light: DIQMTQSPSSLSASVGDRVTITCRSSQRIMTYLNWYQQKPGKAPKLLIYVGSHSQSGVPSRFRGSGSETDFTLTISGLQPEDSATYYCQQSFFTPLTFGGGTKVEIKRTVAAPSVFIFPPSDEQLKSGTASVVCLLNNFYPREAKVQWKVDNALQSGNSQESVTEQDSKDSTYSLSSTLTLSKADYEKHKVYACEVTHQGLSSPVTKSFNRGEC | 1 | – | – | –
C0083 (antibody, human IgG1, kappa, IgG1, wt Fc; also called parent antibody of C0115) heavy: not shown light: DIQMTQSPSSLSASVGDRVTITCRSSQRIMTYLNWYQQKPGKAPKLLIYVGSHSQSGVPSRFRGSGSETDFTLTISGLQPEDSATYYCQQSFFTPLTFGGGTKVEIKRTVAAPSVFIFPPSDEQLKSGTASVVCLLNNFYPREAKVQWKVDNALQSGNSQESVTEQDSKDSTYSLSSTLTLSKADYEKHKVYACEVTHQGLSSPVTKSFNRGEC | 0.5 | – | – | ~3
C0078 (antibody, human IgG1, kappa, IgG1, wt Fc) heavy: not shown light: DIQMTQSPSSLSASVGDRVTITCRSSQRIMTYLNWYQQKPGKAPKLLIYVGSHSQSGVPSRFRGSGSETDFTLTISGLQPEDSATYYCQQSFFTPLTFGGGTKVEIKRTVAAPSVFIFPPSDEQLKSGTASVVCLLNNFYPREAKVQWKVDNALQSGNSQESVTEQDSKDSTYSLSSTLTLSKADYEKHKVYACEVTHQGLSSPVTKSFNRGEC | 1.6 | – | – | –
C0115 (antibody, human IgG1, kappa, L234A L235A, IgG1 with Fc silencing L234A/L235A (EU numbering); also called Fc silenced anti-oxMIF antibody C0115) heavy: not shown light: DIQMTQSPSSLSASVGDRVTITCRSSQRIMTYLNWYQQKPGKAPKLLIYVGSHSQSGVPSRFRGSGSETDFTLTISGLQPEDSATYYCQQSFFTPLTFGGGTKVEIKRTVAAPSVFIFPPSDEQLKSGTASVVCLLNNFYPREAKVQWKVDNALQSGNSQESVTEQDSKDSTYSLSSTLTLSKADYEKHKVYACEVTHQGLSSPVTKSFNRGEC | – | 0.28 | – | –
